What all share (conditions): protein: recombinant, tags: N-terminal His6 (pHIS-parallel1), label: 3' fluorescein (5-thiosemicarbazide)
Data set [1] concerns the target T1, dNELF-E (Drosophila, UniProt P92204 1-280).
T1 sequence: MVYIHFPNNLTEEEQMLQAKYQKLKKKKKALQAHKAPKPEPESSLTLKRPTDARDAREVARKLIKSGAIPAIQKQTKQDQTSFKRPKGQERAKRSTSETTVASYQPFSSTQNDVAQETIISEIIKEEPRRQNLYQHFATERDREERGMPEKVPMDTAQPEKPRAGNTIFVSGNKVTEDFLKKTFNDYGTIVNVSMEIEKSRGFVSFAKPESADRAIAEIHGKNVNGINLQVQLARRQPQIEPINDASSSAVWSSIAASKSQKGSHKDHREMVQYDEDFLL
The experiment in a line: F-EMSA; 10 mM HEPES-NaOH pH 7.5, 100 mM NaCl, 25 mM KCl, 1 mM MgCl2, 0.02% Tween-20, 0.01% IGEPAL CA-630, 10 µg/ml yeast tRNA; 2 nM RNA, 0-2000 nM protein, 1-2 h, binding temperature not stated; gel 5% acrylamide 0.5X TBE at 4 °C. (In EMSA bound probe runs differently from free probe, usually more slowly.)

The target of data set [2] is T2, hNELF-E (human, UniProt P18615 1-380). The data set is described as above.
T2 sequence (P18615 whole entry): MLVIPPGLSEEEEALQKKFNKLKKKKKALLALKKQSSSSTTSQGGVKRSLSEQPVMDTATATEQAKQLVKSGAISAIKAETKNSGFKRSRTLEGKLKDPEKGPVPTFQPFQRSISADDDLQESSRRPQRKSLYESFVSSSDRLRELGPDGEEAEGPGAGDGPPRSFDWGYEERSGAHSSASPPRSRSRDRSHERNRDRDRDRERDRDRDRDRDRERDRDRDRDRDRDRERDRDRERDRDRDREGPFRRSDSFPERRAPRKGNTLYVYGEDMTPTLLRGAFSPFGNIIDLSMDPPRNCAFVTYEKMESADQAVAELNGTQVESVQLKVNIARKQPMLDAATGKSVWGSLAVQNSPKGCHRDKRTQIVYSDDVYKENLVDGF
Data set [3] concerns the target T1, dNELF-E. Description: fluorescence polarization; 10 mM HEPES-NaOH pH 7.5, 100 mM NaCl, 25 mM KCl, 1 mM MgCl2, 0.02% Tween-20, 0.01% IGEPAL CA-630, 10 µg/ml yeast tRNA; 2 nM RNA, 0-2000 nM protein, 1-2 h, binding temperature not stated; gel 5% acrylamide 0.5X TBE at 4 °C.
The target of data set [4] is T2, hNELF-E. Described as above.
Where [5] appears, read: no predicted secondary structure.

For orientation: Kd means the free concentration of one partner at which half of the binding sites on the other are occupied at equilibrium, for simple one-to-one binding.

B1: HIV-1 TAR (structured_RNA)
RNA: GGUCUCUCUGGUUAGACCAGAUCUGAGCCUGGGAGCUCUCUGGCUAACUAGGGAACC
On to B1, for which the dissociation constant Kd in data set [1] (hairpin with UCU bulge) is 350 ± 35 nM; in data set [2] (hairpin with UCU bulge) it was 300 ± 20 nM; in data set [3] (hairpin with UCU bulge), 130 ± 10 nM; in data set [4] (hairpin with UCU bulge) it was 200 ± 10 nM.

With GGCCCCACUGAGGAUGCCCACGGGCGAUUGGGGCCA (structured_RNA) [Napt1min], the Kd in data set [1] (putative K-turn stem-loop) was found to be 44 ± 22 nM; in data set [2] (putative K-turn stem-loop), 420 ± 90 nM; in data set [3] (putative K-turn stem-loop), 21 ± 7 nM; in data set [4] (putative K-turn stem-loop), 140 ± 10 nM.

With GGCCCCAUCAAAGAUGCCCACGGGCGAUUGGGGCCA (structured_RNA) [Napt1NBEmut], the Kd in data set [1] (predicted structure kept as in Napt1min) is 880 ± 170 nM.

With GGCCCCACUGAGGAUGCCCACGGGCGUCCUCAGUGGGGCCA (structured_RNA) [Napt1+hairpin], the Kd came to 810 ± 50 nM in data set [1] (hairpin, NBE base-paired) and 470 ± 170 nM in data set [3] (hairpin, NBE base-paired).

B2: HIV-1 TAR+A (structured_RNA)
RNA: GGUCUCUCUGGUUAGACCAGAUCUGAGCCUGAGGAGCUCUCUGGCUAACUAGGGAACC
Consider B2, for which the Kd was found to be 59 ± 2 nM in data set [1] (hairpin with UCU bulge), 250 ± 20 nM in data set [2] (hairpin with UCU bulge), 82 ± 1 nM in data set [3] (hairpin with UCU bulge) and 250 ± 20 nM in data set [4] (hairpin with UCU bulge).

With GGGGACUGAGGAGCAACACGGGCGAUUGGGGCCA (ssRNA) [Napt1-Δstem], the dissociation constant (Kd) in data set [1] (setting [5]) is 205 ± 20 nM; in data set [3] (setting [5]), 270 ± 130 nM.

B3: Napt25min (structured_RNA)
RNA: GGUCUCCAACUGAGGAUACCGCUCGAGGAAGCGAGUGGCGAUUUGGAGACCU
For B3, the Kd in data set [1] (putative K-turn stem-loop) was found to be 53 ± 9 nM; in data set [3] (putative K-turn stem-loop), 30 ± 2 nM.

Source of the values: publication PMC3894171, “Defining NELF-E RNA Binding in HIV-1 and Promoter-Proximal Pause Regions”.
